According to the DeepSol protein solubility set:

assay: soluble on expression in E. coli; label from the status in PepcDB or PDB records

Row | Sequence | soluble on expression in E. coli
1 | METPIAEELAKKQKSISVAEFFEKNRQILGFDSAPRSLITTVKEAVDNALDACEEAGILPDILVQVERTGPDYVTVIIEDNGPGIVREQIPKVFAKLLYGSRFHALKQSRGQQGIGISAAVLYAQMTAGRHTKILSKTSPTAPAHYYELMINTSTNEPDILVDEVRDWFRPHGTQIELEMRAAYVKGRRQSIYEYLKATAIVNPHARITLIDPDGNEEVFERATDKMPEPAEEILPHPEGIELGTLMKMLHYTERQKLAPFLRYSFCKIGLLTAEEICKAAGLDPEIDPHALGRHEARKLIEAFEKVKIMAPPTDCLSPIGEDLIYRGLEKETTVDFIATSTRKPAVYSGNPFVVEVGMAYGGNLPKEEKISIMRFANRVPLLYQQGGCVTTHAVEDIKWKQYGLNQPGGGIPVGPVILLIHVASINVPFTSESKDAIADIPVIKEEIDLAIKEVARKLKHYLSKQSNLKKRREKEIIITKVLPKLAAKVAHVLEKDVPDINPVVAKIMGNLLVHRVIKNNGDGTVDVAIKVKNFGTSAYSFRVHEMLPCKVSGAKPEPKVVTMGNDYDYVWDISASAGSSKVLSYKIESASEEELQKLPQLIVEGIEEELVTGAKAFKGV | soluble
2 | METPVPKPRTKFEPSSPEPTLPPRPPVKPPRAVANSTAVQNFGNVLGELRLNLNETISSQDPPGIGFIEVSPGTSMSPPQRHAPPPPRPPPPAGWKQHPVIPERIQLNRPLPSLPIDVSLTPVYSEPSTSSPSSTNCYENHNSSVVENPLYLSLDTYRSISGITPSPSNAPTTSPDCDELREWLTEEEENESCSSSRPENLNASIPAPIPGDDSRPSIDSEENPYTPCPRRSDYDNSEFIGSTIDPFDDSFYTDNTTNNSHQNLYVSPQFVKEKTKSECDRYENVVEICSSPDPPPTHLYVNVPPIYPSADNIISSESDDVFRDEGKMKIDGSSITFVGFVSLTSSKKEKRLHCRLRNMQLSFHDDEDSTEPSNGTFDIKGIYLFRHMASDTPYILIHVGEKRNVISFIPEDPPNLWMFFLSEAWLSLNYGLTSVLRDADELTICGITWIKHGTTGEWKICSAGINGLTLHYMLVDAKDRIYNRNSERSDAGTSFMSTVGSIIGDELVEVDLRKVMTMRERIDKSEFCPNARHKRGPFSITLHGVTLYIDSRDDSTTSHWYEAIEALLKRPATRLENLRLTGDNIPVIVDKCIRFVSAYGMKCEGIYRRNGKVTEAKTILTKLTEDPVGYYPVHENDETVYAVADVLRQFFRKLDAPLFPSSSQADLFDLATESQSDELCARYAQLINTFELVHRSTLKKLIGHLKNVSEHAQENRASVENLAKVFAASLFLTDAMDEKVFSESYNHQINVLIHLTTGYDVVFQISIEEELSRQMVNDAEKKSFNAKKPSPDFIVAIHVWEKENRPFNVKMSLASEEVCREAIAKRGFDGPPDSPYAIFECLAGGNLIRRLPNAQKMSKCVLQWIDWNCKDAYLLFDHDKYQFNGTDMSCFTGKIKIAEPGSRTFKSYEVKIENGTSIVAFRNEKLWKAWPMDDSIWYVGTEPTRKSPNLFNATMICSTKTGYSSSRFPGFCFSFKEETDRNRWLTALSHFTKSIDSEPLVYI | not soluble
3 | METSIFDDVETRIDNNEIIAQQHAEDLFELYLKIQNAEKDSVIDIRKEASADHEEMLCELRNDLSQVMKMGMVNLSMQIIAQERNNRRKVNQHIINIKSKTEEIDKFFQRAISVLGAPPGYPAKKEEKAKTKNYLIQFGEVLLSISTMVTNLEQSLACYELKEVLMNGMISQIRTQISDFNKVIPNFKRILNSENQEIDPDNYEKFVDMKKRLFAMVNCLHLISEKRGEMNRLIEEKMNLSMPQFQNLQISNGT | not soluble
4 | MEVFGKSPMVVTSANVIYLSAILGRDCDGHKCDWKCENENVCGNMYRCKLTGLTHVCDKNCNQRILYDNHSSLCRASGRIFPLSSVEEQAVKGVRRKLDAAESHPSESCSFKRRRRDAQFHASPFERSFTAVSPICSPAGDGMELV | not soluble
5 | MEVKAFLERETLDRTLGVRYLKAEKDEVVAELVVTPKVHQPFGFLHGGATVALAESVASVGGFLNCPPGHAAFGLEINCNHLRKKREGTIRAVGRPLHVGRTTQVWEVKVYDEEGRLVAASRCTLAVVPLEPAKEPA | soluble
